Assay: yeast display, Sf9 membrane polyspecificity reagent, FACS + sequencing; frameworks hold sequencing errors
In short: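 After 36–48 hours of galactose induction, yeast (Saccharomyces cerevisiae BJ5465) displaying a synthetic nanobody library were stained at 4 °C for 1 hour with 10% biotinylated, detergent-solubilized Sf9 membrane reagent. Streptavidin microbeads enriched the stained cells before FACS sorting into low and high (top ~1%) gates on anti-HA and streptavidin fluorescence. Each clone's polyreactivity label reflects its gate of origin.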

Sequence | polyreactivity (PSR sort gate)
QVQLVESGGGLVQAGGSLRLSCAASGITFENYAMGWYRQAPGKETELVASITRSGGNTYYADSVKGRFTISRDTAKNSVYLQMNSLKPEDTAVYDCAKDSGLNDDFIYWGQGTQVTVSS | low polyreactivity
QVQLVESGGGLVQAGGSLRLSCAASGITFEYNAMGWYRQAPGKERELVATISGGARTYYADSVKGRFTISRDNAKNTVYLQMNSLKPEETAVYYCAAKYPWYGWFDHWGQGTQVTVSS | low polyreactivity
QVQLVESGGGLVQAGGSLRLSCAASGITFEYYAMGWYRQAPGKERELVAAIDTGGSTNYADSVKGRFTISRDNAKNTVYLQMNSLKPEDTAVYYCAADWSWWDGEDYHFEYDYWGQGTQVTVSS | low polyreactivity
QVQLVESGGGLVQAGGSLRLSCAASGITFEYYAMGWYRQAPGKERELVAAIDTVGSTNYADSVKGRFTISRDNAKNTVYLQMNSLKPEDTAVYYCAADWSWWDGEDYHFEYDYWGQGTQVTVSS | low polyreactivity
QVQLVESGGGLVQAGGSLRLSCAASGITFEYYDMGWYRQAPGKERELVAAISWSTDITYADSVKGRFTISRDNAKNTVYLQLNSLKPEDTAVYYCAALGGLSDFWHLYDYWGQGTQVTVSS | low polyreactivity
QVQLVESGGGLVQAGGSLRLSCAASGITFFGYAMGWYRQAPGKERELVAGISRSTGRTYYADSVKGRFTISRDNAKNTVYLHMNSLKPEDTAVYYCNAELYPWPGVVRYNYWGQGTQVTVSS | high polyreactivity
QVQLVESGGGLVQAGGSLRLSCAASGITFFNYAMGWYRQAPGKERELVAAISGGSTYYADSVKGRFTISRDNAKNTVYLQMNSLKPEDTAVYYCAARVASKYLVYRKRPSRFDYWGQGTQVTVSS | low polyreactivity
QVQLVESGGGLVQAGGSLRLSCAASGITFFRNAMGWYRQAPGKERELVAGISTTGGRTYYADSVKGRFTISRDKAKNTVYLQMNSLKPEDTAVYYCNTLVPRAGREYDYWGQGTQVTVSS | high polyreactivity
QVQLVESGGGLVQAGGSLRLSCAASGITFFRNAMGWYRQAPGKERELVAVITYSGGRTSYADSVKGRFTISRDNAKNTVYLQMNSLKPEDTAVYYCATEKWQSSPGYTYYFVEYDYWGQGTQVTVSS | low polyreactivity
QVQLVESGGGLVQAGGSLRLSCAASGITFFSYAMGWYREAPGKERELVAAISRRTGSTYYADSVKGRFTISRDNGMNTVFLQMMSLKPEDTAVYYCAARLPGTRYPYDYWGQGTQVTVSS | high polyreactivity
QVQLVESGGGLVQAGGSLRLSCAASGITFFTNVMGWYRPAPGKERELVAAISRSGTSTYYADSVKGRFTISRDNAKNTVYLQMNSLKPEDTAVYYCNADQIRGDGDYWGQGTQVTVSS | high polyreactivity
QVQLVESGGGLVQAGGSLRLSCAASGITFFWNAMGWYRTAPGKERELVAAISSGAGTTYADSVKGRFTISRDNAKNTVYLQMNSLKPEDTAVYYCAARRYRYAYGPYNYWGQGTQVTVSS | low polyreactivity
QVQLVESGGGLVQAGGSLRLSCAASGITFFYNAMGWYRQAPGKERELVADITNSGSTYYADSVKGRFTISRDNAKNTVYLQMNSLKPEDTAVYYCAAGQAYDYFVYYPDDYWGQGTQVTVSS | low polyreactivity
QVQLVESGGGLVQAGGSLRLSCAASGITFFYYAMGWYRQAPGKEMELVAAIRYYGTSTYADSVKGRFTISRDNAKNTVYLQMNSLKPEDTAVYYCAAVFWFVGSLYDYWGQGTQVTVSS | low polyreactivity
QVQLVESGGGLVQAGGSLRLSCAASGITFGANTMGWYRQAPGKERELVADITVTGDGTYYADSVKGRFTISRDNAKNTVYLQMNSLKPEDTAVYYCAADFWLVSFQWDFEYDYWGQGTQVTVSS | low polyreactivity
QVQLVESGGGLVQAGGSLRLSCAASGITFGAYAMGWYRQAPGKERELVAVITRGADTYYADSVKGRFTISRDNAKNTVYLQMNSLKPEDTAVYYCAAEIDLPYYYGSDDDDYWGQGTQVTVSS | high polyreactivity

Sequence | polyreactivity (PSR sort gate)
QVQLVESGGGLVQAGGSLRLSCAASGITFGDNVKGWYRQAPGKERELVAAISRIGDDTYYADSVKGRFTISRDNAKNTVYLQMNSLKPEDTAVYYCAAEYIYYIWSSYIDWDYYWVQGTQVTVSS | low polyreactivity
QVQLVESGGGLVQAGGSLRLSCAASGITFGDYAMGWDRQAPGKERELVAGINWSGDGTYYSDSVKGRFTISRDNAKNTFYLQMNSLKPEDTAVYYCAAETFYDYGGYDYWGQGTQVTVSS | low polyreactivity
QVQLVESGGGLVQAGGSLRLSCAASGITFGFNAMVWYRQAPGKETELVAAITYRGGSTYYADSVKGRFTISRDNAKNTVYLQMNSLKPEDTAVYYCAADIGRHTDNYDPRYDYWGQGTHVTVSS | low polyreactivity
QVQLVESGGGLVQAGGSLRLSCAASGITFGPYAIGWYRQAPGKERELVAAISAGGGSTYYADSVKGRFTISRDNAKNSVYLQMNSLKPEDTAVYYCAAYLLHHYGGPEYYYWGQGTQVTVSS | high polyreactivity
QVQLVESGGGLVQAGGSLRLSCAASGITFGPYAMGWYRQAPGKERELVATISSSGGSTYYADSVKGRFTISRDNAKNTVYLQMNSLKPEDTAVYYCNAGYAPYLGAYDYWGQGTQVTVSS | low polyreactivity
QVQLVESGGGLVQAGGSLRLSCAASGITFGRNTLGRYRQAPGKVRELVAAIDSGGNTYADSVKGRFTISRDNAKNTVYLQMNSLKPEDTAVYYCAVDGCEFSSYGYWGQGTQGTVSS | low polyreactivity
QVQLVESGGGLVQAGGSLRLSCAASGITFGRNTMGWYRQAPGKERELVAAIDSGGNTYADSVKGRFTISRDNAKNTVYLQMNSLKPEDTAVYYCAKDVYSYYYPYRYESWGQGTQVTVSS | low polyreactivity
QVQLVESGGGLVQAGGSLRLSCAASGITFGRNTMGWYRQAPGKERELVAAIDSGGNTYADSVKWRFTISRDNAKNTVYLQMNSLKPEDTAVYYCAADIGSWYDYWGQGTQVTVSS | low polyreactivity
QVQLVESGGGLVQAGGSLRLSCAASGITFGRNTMGWYRQAPGNERELVAAIDSGGNTYADSVKGRFTISRDNAKNTFYLQMNSLKPEDTAVYYCCVDGGEFSSYGYWGQGTQVTVSS | low polyreactivity
QVQLVESGGGLVQAGGSLRLSCAASGITFGRNTMGWYRQAPRKERELVAAIDSGGNTYADSVKGRFTISRDNAKNTVYLQMNSLKPEDTAVYYCAVDGGEFSSYGYWGQGTQVTVSS | low polyreactivity
QVQLVESGGGLVQAGGSLRLSCAASGITFGSNAMGWYRQAPGKERELVAAIRYSTGSTYYADSVKGRFTISRDNAKNTVYLQMNRLKPEDTAVYYCAKGKNRYTWYGMGYWGQGTQVTVSS | high polyreactivity
QVQLVESGGGLVQAGGSLRLSCAASGITFGSYAMGWYRQAPGKEREFVAAISLSGGNTYYADSVKGRFTISRDNAKNTVYLQMNSLKPEDTAVYYCAADYEYSGYGYWGQGTQVTGSS | high polyreactivity
QVQLVESGGGLVQAGGSLRLSCAASGITFGVYGMGWYRQAPGKERELVAAIDQSGDSTYYADSVKGRFTISRDNAKNTVYLQMNSLKPEDTAVYYCAAQSYDYWYDYDYWGQGTQVTVSS | high polyreactivity
QVQLVESGGGLVQAGGSLRLSCAASGITFGWNVAMGWYRQAPGKERELVATITNGGSTKYADSVKGRFTISRDNAKNTVYLQMNSLKPEDTAVYYCAARVYHRFEWFHQYDYWGQGTQVTVSS | high polyreactivity
QVQLVESGGGLVQAGGSLRLSCAASGITFGWYAMGWYRQAPGKERELVASISSSGSTNYADSVKGRFTISRDNAKNTVYLQMNSLKPEDTAVYYCNKDYLLRHYYIYVIEGDYWGQGTQVTVSS | low polyreactivity

From the nanobody polyreactivity screen of Harvey et al. (2022)
